Reference: publication PMC4877171 (Chemical research in toxicology, 2015)

T1: purified rat cytosolic TrxR (rat, UniProt O89049 1-499, selenocysteine at 498)
T1 sequence (looked up): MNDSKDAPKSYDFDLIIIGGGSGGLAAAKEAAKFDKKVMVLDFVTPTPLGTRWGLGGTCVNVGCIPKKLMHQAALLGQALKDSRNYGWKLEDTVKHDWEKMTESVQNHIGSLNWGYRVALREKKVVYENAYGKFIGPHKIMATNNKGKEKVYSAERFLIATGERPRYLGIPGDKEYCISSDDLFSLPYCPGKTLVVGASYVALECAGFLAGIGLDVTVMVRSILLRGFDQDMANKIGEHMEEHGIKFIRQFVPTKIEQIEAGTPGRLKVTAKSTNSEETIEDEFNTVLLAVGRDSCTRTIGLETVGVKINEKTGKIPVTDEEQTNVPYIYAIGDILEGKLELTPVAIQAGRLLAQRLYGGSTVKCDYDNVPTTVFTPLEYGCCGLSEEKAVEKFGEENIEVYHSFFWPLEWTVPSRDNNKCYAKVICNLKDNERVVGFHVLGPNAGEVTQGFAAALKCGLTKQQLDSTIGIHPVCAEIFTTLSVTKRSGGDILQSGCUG


Legend:
Experiment in all cases: cross-linking
[1] = biological target: Human recombinant TrxR1 mutant enzyme (Sec498Cys) (human) (UniProt Q16881)
[2] = biological target: T1, purified rat cytosolic TrxR
[3] = biological target: the molecule itself

| Molecule | stoichiometry N [1] | binding result [2] | stoichiometry N [3] |
| --- | --- | --- | --- |
| Human recombinant TrxR1 mutant enzyme (Sec498Cys) (from UniProt Q16881-5 1-499) | 2 |  |  |
| recombinant human Trx1 (natural protein) MVKQIESKTAFQEALDAAGDKLVVVDFSATWCGPCKMIKPFFHSLSEKYSNVIFLEVDVDDCQDVASECEVKCMPTFQFFKKGQKVGEFSGANKEKLEATINELV |  | binds | 2 |
